Data published in US20230374088A1 (GENERAL HOSPITAL, published 2023).
Each block holds one binder with its values, some of them ahead of it.

Columns and labels:
[1] = molecular target: T1, FLAG-Kif7 (544-1343aa) (human, UniProt Q2M1P5 544-1343); assay: pull-down on anti-FLAG beads, anti-c-myc blot, Expi293F cells
T1 construct: Expressed in Expi293F cells for the pull-down; also called C-terminal half of Kif7; not shown: FLAG tag from pCMV-BICEP-4 (MCS1), N-terminal by the name
T1 sequence: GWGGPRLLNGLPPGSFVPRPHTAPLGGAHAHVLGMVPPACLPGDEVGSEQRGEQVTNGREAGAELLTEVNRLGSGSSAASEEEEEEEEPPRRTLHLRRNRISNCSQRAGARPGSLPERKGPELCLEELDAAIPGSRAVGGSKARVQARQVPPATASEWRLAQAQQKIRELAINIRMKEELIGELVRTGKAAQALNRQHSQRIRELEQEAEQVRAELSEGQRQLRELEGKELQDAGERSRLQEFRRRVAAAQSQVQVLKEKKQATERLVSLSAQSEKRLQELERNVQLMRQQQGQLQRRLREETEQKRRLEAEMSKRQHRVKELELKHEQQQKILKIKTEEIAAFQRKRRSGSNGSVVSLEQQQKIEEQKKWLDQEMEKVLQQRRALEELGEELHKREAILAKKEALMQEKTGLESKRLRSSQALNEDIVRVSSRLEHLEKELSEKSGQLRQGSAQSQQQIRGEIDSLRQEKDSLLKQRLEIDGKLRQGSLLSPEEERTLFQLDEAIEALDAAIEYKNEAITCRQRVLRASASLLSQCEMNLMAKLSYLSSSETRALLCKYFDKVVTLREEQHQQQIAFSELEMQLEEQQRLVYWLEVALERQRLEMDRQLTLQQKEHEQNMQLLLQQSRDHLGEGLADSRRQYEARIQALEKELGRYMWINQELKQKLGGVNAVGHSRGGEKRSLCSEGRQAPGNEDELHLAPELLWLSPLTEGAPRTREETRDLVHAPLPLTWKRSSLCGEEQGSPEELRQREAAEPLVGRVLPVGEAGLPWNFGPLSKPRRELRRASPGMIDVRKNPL
Description: (§1) Immunoprecipitation (IP) using anti-FLAG magnetic beads. Input (cell lysate), FT (flow through), wash and beads samples were immunoblotted (IB) with anti c-Myc antibody to detect Gli2. […] The blots are representative images of a minimum of three repeats. Gli2-ZF mutants are as follows: ZF2-mut (H493A, R496A), ZF3-mut (H503A, R516A, K521A), ZF4-mut (R550A, K552A, R556A). Kif7-CC mutants are as follows: S1-mut (E500A, E501A, E502A, D505A), S2-mut (E511A, E515A), S3-mut1 (E526A, E529A) and S3-mut2 (E530A, R535A).
(§2) To narrow down the residues that participate in binding, we analyzed the model of the Kif7-SCC:Gli2-ZF complex using PDBsum server (De Beer et al., Nucleic acids research, 42, D292-D296, 2014). We performed alanine scanning mutagenesis of the charged residues on Gli2-ZF that came up as part of the binding interface in the PDBsum analysis and analyzed their binding with pull-down assay (FIG. 3D). […] We systematically mutated the residues to alanine and performed the pull-down assay with Gli2-ZF.

[2] = molecular target: T2, c-Myc-Gli2 (595-1568aa) (human, UniProt P10070 595-1568); assay: as above
T2 construct: the end of the construct is meant as the C-terminus of the protein; also called C-terminal half of Gli2; not shown: c-myc tag from pCMV-BICEP-4 (MCS2), N-terminal by the name
T2 sequence (looked up): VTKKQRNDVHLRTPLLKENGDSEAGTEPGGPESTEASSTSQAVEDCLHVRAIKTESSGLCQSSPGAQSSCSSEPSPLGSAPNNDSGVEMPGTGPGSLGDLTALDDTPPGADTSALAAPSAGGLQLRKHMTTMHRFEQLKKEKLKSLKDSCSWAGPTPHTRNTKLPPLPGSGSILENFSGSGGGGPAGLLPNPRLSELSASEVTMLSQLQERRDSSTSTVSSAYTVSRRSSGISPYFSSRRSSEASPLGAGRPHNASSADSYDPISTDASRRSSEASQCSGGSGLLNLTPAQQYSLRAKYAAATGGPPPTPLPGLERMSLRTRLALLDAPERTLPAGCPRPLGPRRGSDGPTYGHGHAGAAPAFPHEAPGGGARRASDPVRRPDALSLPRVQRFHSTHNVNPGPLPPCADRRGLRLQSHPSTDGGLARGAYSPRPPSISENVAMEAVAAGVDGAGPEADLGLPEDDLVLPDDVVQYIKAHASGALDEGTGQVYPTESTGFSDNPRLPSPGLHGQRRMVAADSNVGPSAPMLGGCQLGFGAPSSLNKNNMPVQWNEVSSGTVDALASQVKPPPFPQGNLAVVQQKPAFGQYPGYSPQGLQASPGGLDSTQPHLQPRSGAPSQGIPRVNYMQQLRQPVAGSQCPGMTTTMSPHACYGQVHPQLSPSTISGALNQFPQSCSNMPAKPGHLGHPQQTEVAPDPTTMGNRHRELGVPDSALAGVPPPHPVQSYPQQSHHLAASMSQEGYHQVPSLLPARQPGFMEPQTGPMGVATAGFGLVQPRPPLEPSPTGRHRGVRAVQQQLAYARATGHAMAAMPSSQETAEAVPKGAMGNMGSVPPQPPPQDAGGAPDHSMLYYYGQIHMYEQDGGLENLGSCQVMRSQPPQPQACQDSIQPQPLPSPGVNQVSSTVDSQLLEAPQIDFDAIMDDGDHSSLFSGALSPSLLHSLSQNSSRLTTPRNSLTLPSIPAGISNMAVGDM
Description: as §1, §2

binding result [1]: no binding
B1: c-Myc-Gli2 (1-594aa) (other, human, UniProt P10070 1-594, looked up)
chain: METSASATASEKQEAKSGILEAAGFPDPGKKASPLVVAAAAAAAVAAQGVPQHLLPPFHAPLPIDMRHQEGRYHYEPHSVHGVHGPPALSGSPVISDISLIRLSPHPAGPGESPFNAPHPYVNPHMEHYLRSVHSSPTLSMISAARGLSPADVAQEHLKERGLFGLPAPGTTPSDYYHQMTLVAGHPAPYGDLLMQSGGAASAPHLHDYLNPVDVSRFSSPRVTPRLSRKRALSISPLSDASLDLQRMIRTSPNSLVAYINNSRSSSAASGSYGHLSAGALSPAFTFPHPINPVAYQQILSQQRGLGSAFGHTPPLIQPSPTFLAQQPMALTSINATPTQLSSSSNCLSDTNQNKQSSESAVSSTVNPVAIHKRSKVKTEPEGLRPASPLALTQGQVSGHGSCGCALPLSQEQLADLKEDLDRDDCKQEAEVVIYETNCHWEDCTKEYDTQEQLVHHINNEHIHGEKKEFVCRWQACTREQKPFKAQYMLVVHMRRHTGEKPHKCTFEGCSKAYSRLENLKTHLRSHTGEKPYVCEHEGCNKAFSNASDRAKHQNRTHSNEKPYICKIPGCTKRYTDPSSLRKHVKTVHGPDAH
notes: Expressed in Expi293F cells for the pull-down; also called N-terminal half of Gli2; not shown: c-myc tag from pCMV-BICEP-4 (MCS2), N-terminal by the name

binding result [2]: no binding
B2: FLAG-Kif7 (1-543aa) (other)
chain: MGLEAQRLPGAEEAPVRVALRVRPLLPKELLHGHQSCLQVEPGLGRVTLGRDRHFGFHVVLAEDAGQEAVYQACVQPLLEAFFEGFNATVFAYGQTGSGKTYTMGEASVASLLEDEQGIVPRAMAEAFKLIDENDLLDCLVHVSYLEVYKEEFRDLLEVGTASRDIQLREDERGNVVLCGVKEVDVEGLDEVLSLLEMGNAARHTGATHLNHLSSRSHTVFTVTLEQRGRAPSRLPRPAPGQLLVSKFHFVDLAGSERVLKTGSTGERLKESIQINSSLLALGNVISALGDPQRRGSHIPYRDSKITRILKDSLGGNAKTVMIACVSPSSSDFDETLNTLNYASRAQNIRNRATVNWRPEAERPPEETASGARGPPRHRSETRIIHRGRRAPGPATASAAAAMRLGAECARYRACTDAAYSLLRELQAEPGLPGAAARKVRDWLCAVEGERSALSSASGPDSGIESASVEDQAAQGAGGRKEDEGAQQLLTLQNQVARLEEENRDFLAALEDAMEQYKLQSDRLREQQEEMVELRLRLELVRP
notes: Expressed in Expi293F cells for the pull-down; also called N-terminal half of Kif7; Kif7-DM; not shown: FLAG tag from pCMV-BICEP-4 (MCS1), N-terminal by the name
